# According to PMC12767058:
# Target: K-TM protein used for the affinity measurement with hFL (human)
# Test: BLI; method not given; BLI is the only affinity method that the paper describes (Octet R8, SA chip, PBST); who was immobilised is not said
substance,measurement,value
"hFL lectin (mannose-binding lectin, human recombinant protein)",Kd,49.5 nM
